Holding throughout (experiment): Trypsin activity with Chromozym TH as substrate, kinetic constants kcat and Km
Series [1] concerns the target T1, humanes Trypsin I, Trypsinvariante rTRYI-VGR (Aktivierungspeptid ValGlyArg, autokatalytisch aktiviert) (Homo sapiens, UniProt P07477).
T1 construct: kodierend für Trypsin I von Aminosäureposition 24-247; made in house
Type of series: biochemical. The following applies: Substrat: Chromozym®TH; 25°C, 50 mmol/l Tris-HCl, 150 mmol/l NaCl, 5 mmol/l CaCl2, 0,1% PEG 8000, pH 8,0. The procedure:
Das N-terminale native Trypsinogen I Prosegment AlaProPheAspAspAspAspLys wurde durch das Aktivierungspeptid ValGlyArg ersetzt. Das TRYI-VGR Trypsinvariantengen wurde analog wie das TRYI-GPK Trypsinvariantengen mittels PCR-Technik hergestellt.
(§1) Die Aktivitätsbestimmung von Trypsin wurde in einem Volumen von 1 ml in 50 mmol/l Tris-HCl, 150 mmol/l NaCl, 5 mmol/l CaCl2, 0,1% PEG 8000, pH 8,0 und 0,1 mmol/l des chromogenen Substrats Chromozym®TH (Tosyl-Gly-Pro-Arg-4-pNA, Kat.-Nr. 838268, Boehringer Mannheim GmbH, Mannheim, Deutschland) bei 25°C durchgeführt. Die Reaktion wurde durch Zugabe von 1-10 µl Trypsin-haltiger Probe (0,4-4 U/ml, gelöst in 1 mmol/l HCl) gestartet und die Absorptionsänderung/min (ΔA/min) bei 405 nm (ε405 = 9,75 [mmol^-1 x 1 x cm^-1]) bestimmt. 1 Chromozym®TH Unit Trypsin ist definiert als die Menge Enzym, die 1 µmol pNitroanilin (pNA) pro min bei 25°C aus dem chromozymen Substrat freisetzt.
Die FXa Aktivitätsbestimmung wurde mit dem chromogenen Substrat Chromozym® X (0,1 mmol/l, N-Methoxycarbonyl-D-Nle-Gly-Arg-pNA, Boehringer Mannheim GmbH, Mannheim, Kat.-Nr. 789763) in einem Volumen von 1 ml bei 25°C in 50 mmol/l Tris-HCl, 150 mmol/l NaCl, 5 mmol/l CaCl2, 0,1% PEG 8000, pH 8,0, durchgeführt. […]

Substrate in series [2]: Cc1ccc(S(=O)(=O)NCC(=O)N2CCC[C@H]2C(=O)N[C@@H](CCCNC(=N)N)C(=O)Nc2ccc([N+](=O)[O-])cc2)cc1
The class given is biochemical, Schweine. As to conditions: other: Substrat: Chromozym®TH, 25°C, 50 mmol/l Tris-HCl, 150 mmol/l NaCl, 5 mmol/l CaCl2, 0,1% PEG 8000, pH 8,0. The procedure:
as §1
(§2) Die FXa Aktivitätsbestimmung wurde mit dem chromogenen Substrat Chromozym® X (0,1 mmol/l, N-Methoxycarbonyl-D-Nle-Gly-Arg-pNA, Boehringer Mannheim GmbH, Mannheim, Kat.-Nr. 789763) in einem Volumen von 1 ml bei 25°C in 50 mmol/l Tris-HCl, 150 mmol/l NaCl, 5 mmol/l CaCl2, 0,1% PEG 8000, pH 8,0, durchgeführt. Die Reaktion wurde durch Zugabe von 1-10 µl rFXa-haltiger Probe (0,4-4 U/ml) gestartet und die Absorptionsänderung/min (ΔA/min) bei 405 nm (ε405 = 9,75 [mmol^-1 x 1 x cm^-1]) gemessen. 1 Unit (U) FXa Aktivität ist definiert als die Menge Enzym, die 1 µmol pNA pro min bei 25°C aus dem chromozymen Substrat freisetzt. Die Aktivität und die kinetischen Konstanten wurden aus der linearen Anfangssteigung gemäß der Michaelis-Menten-Gleichung bestimmt. Die Ergebnisse zeigt Tabelle 1. Tabelle 1

Substrate in series [3]: Cc1ccc(S(=O)(=O)NCC(=O)N2CCC[C@H]2C(=O)N[C@@H](CCCNC(=N)N)C(=O)Nc2ccc([N+](=O)[O-])cc2)cc1
Type of series: biochemical, human. The following applies: other: Substrat: Chromozym®TH, 25°C, 50 mmol/l Tris-HCl, 150 mmol/l NaCl, 5 mmol/l CaCl2, 0,1% PEG 8000, pH 8,0.
Excerpt: Durch Einführung einer zusätzlichen Disulfidbrücke wurde das humane Trypsin I Isoenzym verändert. Dazu wurde die Aminosäure Pro an Position 132 und die Aminosäure Tyr an Position 233 zu Cys mutiert (Aminosäuresequenz-Nummerierung entsprechend der Publikation von Emi, M. et al. (Gene 41 (1986) 305-310)). Durch diese 2 Punktmutationen (P132C und Y233C) kann sich eine zusätzliche 6-te Disulfidbrücke zwischen den erfindungsgemäß eingeführten Cysteinresten an Position 132 und 233 ausbilden. Zudem wurde die Aminosäure Pro an der Position 133 zu Ala mutiert (P133A).
as §1, §2

The kcat is the maximal rate divided by the concentration of active sites. Usually Km stands for the concentration of substrate that gives half-maximal velocity.

Peptide text beside a SMILES is read from it. * marks the point of attachment. pNA = O=[N+]([O-])c1ccc(N*)cc1; Tos = Cc1ccc(S(=O)(=O)*)cc1

In the case of `Cc1ccc(S(=O)(=O)NCC(=O)N2CCC[C@H]2C(=O)N[C@@H](CCCNC(=N)N)C(=O)Nc2ccc([N+](=O)[O-])cc2)cc1` [Chromozym®TH, Tosyl-Gly-Pro-Arg-4-pNA] (Tos-Gly-Pro-Arg-pNA), the kcat in series [1] came out at 95 ± 1 s⁻¹.

B1: Schweine Trypsin (Sigma-Aldrich Chemie GmbH, Kat.-Nr. T-7418) (Sus scrofa) (protein)
chain: IVGGYTCAANSIPYQVSLNSGSHFCGGSLINSQWVVSAAHCYKSRIQVRLGEHNIDVLEGNEQFINAAKIITHPNFNGNTLDNDIMLIKLSSPATLNSRVATVSLPRSCAAAGTECLISGWGNTKSSGSSYPSLLQCLKAPVLSDSSCKSSYPGQITGNMICVGFLEGGKDSCQGDSGGPVVCNGQLQGIVSWGYGCAQKNKPGVYTKVCNYVNWIQQTIAAN
notes: purchased Sigma-Aldrich Chemie GmbH T-7418
Turning to B1, in series [2], the Km stood at 8.5 µM, the kcat amounted to 97 ± 3 s⁻¹ and the kcat/Km is 11,4 1/µM/s.

B2: humanes Trypsin I, Trypsinvariante rTRYI-GPK-SS (P132C, P133A, Y233C; zusätzliche Disulfidbrücke) (Homo sapiens; P132C/P133A/Y233C) (protein)
chain: IVGGYNCEENSVPYQVSLNSGYHFCGGSLINEQWVVSAGHCYKSRIQVRLGEHNIEVLEGNEQFINAAKIIRHPQYDRKTLNNDIMLIKLSSRAVINARVSTISLPTACAATGTKCLISGWGNTASSGADYPDELQCLDAPVLSQAKCEASYPGKITSNMFCVGFLEGGKDSCQGDSGGPVVCNGQLQGVVSWGDGCAQKNKPGVYTKVCNYVKWIKNTIAANS
notes: kodierend für Trypsin I von Aminosäureposition 24-247; the Lys is residue 23) (N, cleaved yes); made in house
In the case of B2, in series [3], the Km was found to be 19 ± 1 µM, the kcat was 99 ± 2 s⁻¹ and the kcat/Km was 5,2 1/µM/s.

The record behind these values is patent EP1012307B1, “ZYMOGENIC PROTEASE PRECURSORS THAT CAN BE AUTOCATALYTICALLY ACTIVATED AND THEIR USE” (Roche Diagnostics GmbH, priority 1997, dated 1999).
